Residue numbers refer to the chain shown, from its start.

The labels stand for the following.
B1: CAP256V2LS-VRC01-3 (bispecific antibody)
heavy chain: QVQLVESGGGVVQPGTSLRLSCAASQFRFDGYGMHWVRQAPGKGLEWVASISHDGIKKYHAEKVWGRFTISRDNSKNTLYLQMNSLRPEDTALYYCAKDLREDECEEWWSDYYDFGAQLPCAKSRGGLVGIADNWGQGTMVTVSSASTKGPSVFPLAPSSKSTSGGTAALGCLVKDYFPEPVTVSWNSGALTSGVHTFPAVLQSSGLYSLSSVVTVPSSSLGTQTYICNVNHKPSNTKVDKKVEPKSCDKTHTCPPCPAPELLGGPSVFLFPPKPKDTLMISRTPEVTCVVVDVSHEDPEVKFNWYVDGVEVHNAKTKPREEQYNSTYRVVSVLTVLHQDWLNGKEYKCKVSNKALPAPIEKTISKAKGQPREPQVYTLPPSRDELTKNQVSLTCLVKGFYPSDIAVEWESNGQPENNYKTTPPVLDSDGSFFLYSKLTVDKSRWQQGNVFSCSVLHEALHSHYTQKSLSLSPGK
light chain (VRC01 scFv, linker, CAP256V2LS LC): QVQLVQSGGQMKKPGESMRISCRASGYEFIDCTLNWIRLAPGKRPEWMGWLKPRGGAVNYARPLQGRVTMTRDVYSDTAFLELRSLTVDDTAVYFCTRGKNCDYNWDFEHWGRGTPVIVSSGGGGSGGGGSGGGGSLTQSPGTLSLSPGETAIISCRTSQYGSLAWYQQRPGQAPRLVIYSGSTRAAGIPDRFSGSRWGPDYNLTISNLESGDFGVYYCQQYEFFGQGTKVQVGGSGGGGSGGGGSGGQSVLTQPPSVSAAPGQKVTISCSGNTSNIGNNFVSWYQQRPGRAPQLLIYETDKRPSGIPDRFSASKSGTSGTLAITGLQTGDEADYYCATWAASLSSARVFGTGTQVIVLGQPKVNPTVTLFPPSSEELQANKATLVCLISDFYPGAVTVAWKADSSPVKAGVETTTPSKQSNNKYAASSYLSLTPEQWKSHRSYSCQVTHEGSTVEKTVAPTECS
B2: CAP256V2LS-VRC01-2 (bispecific antibody)
heavy chain: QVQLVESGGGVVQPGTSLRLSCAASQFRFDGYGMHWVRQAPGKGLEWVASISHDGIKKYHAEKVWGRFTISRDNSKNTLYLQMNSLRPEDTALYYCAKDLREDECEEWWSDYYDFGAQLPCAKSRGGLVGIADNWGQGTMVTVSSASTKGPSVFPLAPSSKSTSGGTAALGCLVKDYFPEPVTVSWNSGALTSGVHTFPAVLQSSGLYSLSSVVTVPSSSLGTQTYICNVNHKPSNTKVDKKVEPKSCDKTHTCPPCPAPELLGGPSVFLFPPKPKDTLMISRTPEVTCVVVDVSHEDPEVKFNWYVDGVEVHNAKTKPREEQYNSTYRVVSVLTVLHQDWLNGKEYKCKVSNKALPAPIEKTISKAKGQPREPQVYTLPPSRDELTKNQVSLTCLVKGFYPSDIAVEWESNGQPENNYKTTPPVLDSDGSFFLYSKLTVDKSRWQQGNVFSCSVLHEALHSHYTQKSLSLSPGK
light chain (VRC01 scFv, linker, CAP256V2LS LC): QVQLVQSGGQMKKPGESMRISCRASGYEFIDCTLNWIRLAPGKRPEWMGWLKPRGGAVNYARPLQGRVTMTRDVYSDTAFLELRSLTVDDTAVYFCTRGKNCDYNWDFEHWGRGTPVIVSSGGGGSGGGGSGGGGSLTQSPGTLSLSPGETAIISCRTSQYGSLAWYQQRPGQAPRLVIYSGSTRAAGIPDRFSGSRWGPDYNLTISNLESGDFGVYYCQQYEFFGQGTKVQVGGSGGGGSGGQSVLTQPPSVSAAPGQKVTISCSGNTSNIGNNFVSWYQQRPGRAPQLLIYETDKRPSGIPDRFSASKSGTSGTLAITGLQTGDEADYYCATWAASLSSARVFGTGTQVIVLGQPKVNPTVTLFPPSSEELQANKATLVCLISDFYPGAVTVAWKADSSPVKAGVETTTPSKQSNNKYAASSYLSLTPEQWKSHRSYSCQVTHEGSTVEKTVAPTECS
B3: CAP256V2LS-VRC01-5 (bispecific antibody)
heavy chain: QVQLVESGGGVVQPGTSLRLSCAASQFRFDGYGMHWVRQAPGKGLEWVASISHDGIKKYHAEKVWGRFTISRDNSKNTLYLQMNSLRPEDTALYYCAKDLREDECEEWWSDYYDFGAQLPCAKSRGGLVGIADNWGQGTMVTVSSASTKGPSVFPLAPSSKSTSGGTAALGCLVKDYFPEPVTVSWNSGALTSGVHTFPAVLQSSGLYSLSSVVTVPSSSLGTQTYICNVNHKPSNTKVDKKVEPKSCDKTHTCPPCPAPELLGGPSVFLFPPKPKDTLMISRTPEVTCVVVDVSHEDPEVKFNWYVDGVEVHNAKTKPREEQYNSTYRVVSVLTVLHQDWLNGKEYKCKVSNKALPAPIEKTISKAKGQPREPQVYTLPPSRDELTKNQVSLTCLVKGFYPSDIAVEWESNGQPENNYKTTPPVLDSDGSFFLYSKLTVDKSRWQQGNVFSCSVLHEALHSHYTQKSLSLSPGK
light chain (VRC01 scFv, linker, CAP256V2LS LC): B2 light chain (VRC01 scFv, linker, CAP256V2LS LC) with G234D, G235K, S236T, G237H, G238T, G239D, G240K, S241T, G242H, G243T
B4: CAP256V2LS-10E8-4 (bispecific antibody)
heavy chain: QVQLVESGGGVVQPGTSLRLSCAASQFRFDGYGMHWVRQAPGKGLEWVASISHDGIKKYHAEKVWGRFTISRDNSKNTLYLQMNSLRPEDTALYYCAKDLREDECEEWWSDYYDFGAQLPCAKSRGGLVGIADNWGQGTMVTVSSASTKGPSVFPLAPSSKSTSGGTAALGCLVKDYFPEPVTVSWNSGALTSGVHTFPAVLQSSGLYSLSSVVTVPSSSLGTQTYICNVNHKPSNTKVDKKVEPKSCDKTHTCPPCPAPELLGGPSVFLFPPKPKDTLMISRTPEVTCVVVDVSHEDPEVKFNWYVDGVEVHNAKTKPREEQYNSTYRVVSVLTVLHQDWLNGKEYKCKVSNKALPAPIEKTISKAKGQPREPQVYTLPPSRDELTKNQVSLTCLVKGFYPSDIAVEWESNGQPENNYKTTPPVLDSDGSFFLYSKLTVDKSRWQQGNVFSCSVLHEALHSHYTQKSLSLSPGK
light chain (10E8v4 scFv, linker, CAP256V2LS LC): EVRLVESGGGLVKPGGSLRLSCSASGFDFDNAWMTWVRQPPGKGLEWVGRITGPGEGWSVDYAESVKGRFTISRDNTKNTLYLEMNNVRTEDTGYYFCARTGKYYDFWSGYPPGEEYFQDWGQGTLVIVSSGGGGSGGGGSGGGGSSELTQDPAVSVALKQTVTITCRGDSLRSHYASWYQKKPGQAPVLLFYGKNNRPSGIPDRFSGSASGNRASLTITGAQAEDEADYYCSSRDKSGSRLSVFGGGTKLTVDKTHTQSVLTQPPSVSAAPGQKVTISCSGNTSNIGNNFVSWYQQRPGRAPQLLIYETDKRPSGIPDRFSASKSGTSGTLAITGLQTGDEADYYCATWAASLSSARVFGTGTQVIVLGQPKVNPTVTLFPPSSEELQANKATLVCLISDFYPGAVTVAWKADSSPVKAGVETTTPSKQSNNKYAASSYLSLTPEQWKSHRSYSCQVTHEGSTVEKTVAPTECS
B5: CAP256V2LS-VRC01-6 (bispecific antibody)
heavy chain: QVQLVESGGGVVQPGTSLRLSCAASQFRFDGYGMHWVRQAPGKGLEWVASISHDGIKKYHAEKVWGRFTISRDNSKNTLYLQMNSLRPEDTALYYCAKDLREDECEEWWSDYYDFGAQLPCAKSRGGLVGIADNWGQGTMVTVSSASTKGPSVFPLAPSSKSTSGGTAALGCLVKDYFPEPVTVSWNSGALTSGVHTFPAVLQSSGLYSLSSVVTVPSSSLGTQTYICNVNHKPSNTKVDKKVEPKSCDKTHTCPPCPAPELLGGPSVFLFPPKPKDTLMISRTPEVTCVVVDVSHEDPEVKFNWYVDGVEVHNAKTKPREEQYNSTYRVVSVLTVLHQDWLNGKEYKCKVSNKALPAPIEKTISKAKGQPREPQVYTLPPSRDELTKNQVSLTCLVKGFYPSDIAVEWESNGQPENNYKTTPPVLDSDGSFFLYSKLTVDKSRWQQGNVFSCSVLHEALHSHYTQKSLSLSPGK
light chain (VRC01 scFv, linker, CAP256V2LS LC): QVQLVQSGGQMKKPGESMRISCRASGYEFIDCTLNWIRLAPGKRPEWMGWLKPRGGAVNYARPLQGRVTMTRDVYSDTAFLELRSLTVDDTAVYFCTRGKNCDYNWDFEHWGRGTPVIVSSGGGGSGGGGSGGGGSLTQSPGTLSLSPGETAIISCRTSQYGSLAWYQQRPGQAPRLVIYSGSTRAAGIPDRFSGSRWGPDYNLTISNLESGDFGVYYCQQYEFFGQGTKVQVDKTHTDKTHTDKTHTQSVLTQPPSVSAAPGQKVTISCSGNTSNIGNNFVSWYQQRPGRAPQLLIYETDKRPSGIPDRFSASKSGTSGTLAITGLQTGDEADYYCATWAASLSSARVFGTGTQVIVLGQPKVNPTVTLFPPSSEELQANKATLVCLISDFYPGAVTVAWKADSSPVKAGVETTTPSKQSNNKYAASSYLSLTPEQWKSHRSYSCQVTHEGSTVEKTVAPTECS
B6: CAP256V2LS-10E8-5 (bispecific antibody)
heavy chain: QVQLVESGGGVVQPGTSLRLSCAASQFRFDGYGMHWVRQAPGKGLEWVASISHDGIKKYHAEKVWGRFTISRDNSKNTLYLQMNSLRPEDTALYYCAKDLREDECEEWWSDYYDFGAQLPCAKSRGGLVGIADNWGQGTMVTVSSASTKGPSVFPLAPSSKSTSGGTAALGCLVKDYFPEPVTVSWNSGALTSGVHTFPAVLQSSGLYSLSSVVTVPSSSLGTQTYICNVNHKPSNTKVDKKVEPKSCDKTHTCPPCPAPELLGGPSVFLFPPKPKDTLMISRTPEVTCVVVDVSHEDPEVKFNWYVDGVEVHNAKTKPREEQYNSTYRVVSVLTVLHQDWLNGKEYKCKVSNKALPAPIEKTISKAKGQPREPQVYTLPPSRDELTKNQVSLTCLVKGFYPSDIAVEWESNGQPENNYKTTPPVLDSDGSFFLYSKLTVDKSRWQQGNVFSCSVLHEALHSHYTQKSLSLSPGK
light chain (10E8v4 scFv, linker, CAP256V2LS LC): EVRLVESGGGLVKPGGSLRLSCSASGFDFDNAWMTWVRQPPGKGLEWVGRITGPGEGWSVDYAESVKGRFTISRDNTKNTLYLEMNNVRTEDTGYYFCARTGKYYDFWSGYPPGEEYFQDWGQGTLVIVSSGGGGSGGGGSGGGGSSELTQDPAVSVALKQTVTITCRGDSLRSHYASWYQKKPGQAPVLLFYGKNNRPSGIPDRFSGSASGNRASLTITGAQAEDEADYYCSSRDKSGSRLSVFGGGTKLTVDKTHTGDKTHTQSVLTQPPSVSAAPGQKVTISCSGNTSNIGNNFVSWYQQRPGRAPQLLIYETDKRPSGIPDRFSASKSGTSGTLAITGLQTGDEADYYCATWAASLSSARVFGTGTQVIVLGQPKVNPTVTLFPPSSEELQANKATLVCLISDFYPGAVTVAWKADSSPVKAGVETTTPSKQSNNKYAASSYLSLTPEQWKSHRSYSCQVTHEGSTVEKTVAPTECS
B7: CAP256V2LS (antibody, V domains shown)
VH: QVQLVESGGGVVQPGTSLRLSCAASQFRFDGYGMHWVRQAPGKGLEWVASISHDGIKKYHAEKVWGRFTISRDNSKNTLYLQMNSLRPEDTALYYCAKDLREDECEEWWSDYYDFGAQLPCAKSRGGLVGIADNWGQGTMVTVSS
VL: QSVLTQPPSVSAAPGQKVTISCSGNTSNIGNNFVSWYQQRPGRAPQLLIYETDKRPSGIPDRFSASKSGTSGTLAITGLQTGDEADYYCATWAASLSSARVFGTGTQVIVLG
B8: CAP256V2LS-VRC01-1 (bispecific antibody)
heavy chain: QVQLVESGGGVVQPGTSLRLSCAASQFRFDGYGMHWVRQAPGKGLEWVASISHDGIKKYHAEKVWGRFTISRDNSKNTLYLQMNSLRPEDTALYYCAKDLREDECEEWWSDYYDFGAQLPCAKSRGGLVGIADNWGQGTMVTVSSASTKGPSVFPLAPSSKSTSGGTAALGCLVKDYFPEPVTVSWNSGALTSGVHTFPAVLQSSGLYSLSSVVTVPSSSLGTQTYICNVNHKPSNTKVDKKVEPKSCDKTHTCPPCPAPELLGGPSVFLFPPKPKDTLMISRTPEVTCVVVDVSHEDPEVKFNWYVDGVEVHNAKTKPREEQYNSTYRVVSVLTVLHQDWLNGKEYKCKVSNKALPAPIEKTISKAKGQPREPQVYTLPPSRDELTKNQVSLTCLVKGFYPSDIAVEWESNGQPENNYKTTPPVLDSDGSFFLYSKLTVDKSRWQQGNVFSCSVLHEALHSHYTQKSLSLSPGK
light chain (VRC01 scFv, linker, CAP256V2LS LC): QVQLVQSGGQMKKPGESMRISCRASGYEFIDCTLNWIRLAPGKRPEWMGWLKPRGGAVNYARPLQGRVTMTRDVYSDTAFLELRSLTVDDTAVYFCTRGKNCDYNWDFEHWGRGTPVIVSSGGGGSGGGGSGGGGSLTQSPGTLSLSPGETAIISCRTSQYGSLAWYQQRPGQAPRLVIYSGSTRAAGIPDRFSGSRWGPDYNLTISNLESGDFGVYYCQQYEFFGQGTKVQVGGSGGQSVLTQPPSVSAAPGQKVTISCSGNTSNIGNNFVSWYQQRPGRAPQLLIYETDKRPSGIPDRFSASKSGTSGTLAITGLQTGDEADYYCATWAASLSSARVFGTGTQVIVLGQPKVNPTVTLFPPSSEELQANKATLVCLISDFYPGAVTVAWKADSSPVKAGVETTTPSKQSNNKYAASSYLSLTPEQWKSHRSYSCQVTHEGSTVEKTVAPTECS
B9: CAP256V2LS-VRC01-4 (bispecific antibody)
heavy chain: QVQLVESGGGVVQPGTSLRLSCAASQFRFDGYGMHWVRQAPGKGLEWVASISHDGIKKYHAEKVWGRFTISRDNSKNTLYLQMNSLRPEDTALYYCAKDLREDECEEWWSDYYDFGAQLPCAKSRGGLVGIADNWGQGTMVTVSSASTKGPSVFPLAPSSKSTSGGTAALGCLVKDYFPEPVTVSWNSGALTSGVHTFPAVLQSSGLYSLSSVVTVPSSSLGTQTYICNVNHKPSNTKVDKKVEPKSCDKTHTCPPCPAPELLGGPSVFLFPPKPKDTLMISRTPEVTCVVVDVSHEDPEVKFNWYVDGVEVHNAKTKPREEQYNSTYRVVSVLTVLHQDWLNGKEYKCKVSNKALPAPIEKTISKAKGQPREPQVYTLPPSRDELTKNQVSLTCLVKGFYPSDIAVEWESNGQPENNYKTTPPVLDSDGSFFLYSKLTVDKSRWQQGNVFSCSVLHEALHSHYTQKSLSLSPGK
light chain (VRC01 scFv, linker, CAP256V2LS LC): B8 light chain (VRC01 scFv, linker, CAP256V2LS LC) with G234D, G235K, S236T, G237H, G238T
B10: CAP256V2LS-J3-1 (bispecific antibody)
heavy chain: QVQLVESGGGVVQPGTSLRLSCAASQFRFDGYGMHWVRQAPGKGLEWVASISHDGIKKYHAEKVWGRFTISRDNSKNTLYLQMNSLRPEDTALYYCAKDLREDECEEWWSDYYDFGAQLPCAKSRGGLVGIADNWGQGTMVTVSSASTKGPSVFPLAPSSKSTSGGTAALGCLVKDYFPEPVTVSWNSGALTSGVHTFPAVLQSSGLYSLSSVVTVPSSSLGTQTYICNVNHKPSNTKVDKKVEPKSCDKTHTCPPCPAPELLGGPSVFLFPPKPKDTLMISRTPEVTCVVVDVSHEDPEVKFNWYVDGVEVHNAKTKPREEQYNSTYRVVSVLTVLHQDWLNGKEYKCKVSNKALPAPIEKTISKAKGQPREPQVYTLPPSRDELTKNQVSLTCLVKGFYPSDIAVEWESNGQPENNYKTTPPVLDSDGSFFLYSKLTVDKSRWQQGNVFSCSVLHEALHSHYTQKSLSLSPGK
light chain (J3 VHH, linker, CAP256V2LS LC): EVQLVESGGGLVQAGGFLRLSCELRGSIFNQYAMAWFRQAPGKEREFVAGMGAVPHYGEFVKGRFTISRDNAKSTVYLQMSSLKPEDTAIYFCARSKSTYISYNSNGYDYWGRGTQVTVSSGGSGGQSVLTQPPSVSAAPGQKVTISCSGNTSNIGNNFVSWYQQRPGRAPQLLIYETDKRPSGIPDRFSASKSGTSGTLAITGLQTGDEADYYCATWAASLSSARVFGTGTQVIVLGQPKVNPTVTLFPPSSEELQANKATLVCLISDFYPGAVTVAWKADSSPVKAGVETTTPSKQSNNKYAASSYLSLTPEQWKSHRSYSCQVTHEGSTVEKTVAPTECS
B11: CAP256V2LS-10E8-6 (bispecific antibody)
heavy chain: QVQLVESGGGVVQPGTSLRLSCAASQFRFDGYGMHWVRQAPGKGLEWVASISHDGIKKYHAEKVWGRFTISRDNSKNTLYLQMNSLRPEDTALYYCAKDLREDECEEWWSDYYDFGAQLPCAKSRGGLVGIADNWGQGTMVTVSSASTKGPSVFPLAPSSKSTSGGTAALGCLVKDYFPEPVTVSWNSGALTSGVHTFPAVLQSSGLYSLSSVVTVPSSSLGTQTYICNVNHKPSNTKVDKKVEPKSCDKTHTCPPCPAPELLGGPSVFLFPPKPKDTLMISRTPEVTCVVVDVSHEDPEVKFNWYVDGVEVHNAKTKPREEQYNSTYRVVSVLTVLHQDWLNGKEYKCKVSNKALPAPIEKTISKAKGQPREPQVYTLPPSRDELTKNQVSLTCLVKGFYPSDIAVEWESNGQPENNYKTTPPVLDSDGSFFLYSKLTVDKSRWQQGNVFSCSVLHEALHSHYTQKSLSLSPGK
light chain (10E8v4 scFv, linker, CAP256V2LS LC): EVRLVESGGGLVKPGGSLRLSCSASGFDFDNAWMTWVRQPPGKGLEWVGRITGPGEGWSVDYAESVKGRFTISRDNTKNTLYLEMNNVRTEDTGYYFCARTGKYYDFWSGYPPGEEYFQDWGQGTLVIVSSGGGGSGGGGSGGGGSSELTQDPAVSVALKQTVTITCRGDSLRSHYASWYQKKPGQAPVLLFYGKNNRPSGIPDRFSGSASGNRASLTITGAQAEDEADYYCSSRDKSGSRLSVFGGGTKLTVDKTHTGDKTHTGDKTHTQSVLTQPPSVSAAPGQKVTISCSGNTSNIGNNFVSWYQQRPGRAPQLLIYETDKRPSGIPDRFSASKSGTSGTLAITGLQTGDEADYYCATWAASLSSARVFGTGTQVIVLGQPKVNPTVTLFPPSSEELQANKATLVCLISDFYPGAVTVAWKADSSPVKAGVETTTPSKQSNNKYAASSYLSLTPEQWKSHRSYSCQVTHEGSTVEKTVAPTECS

The first assay addresses CAP256 wk34c80 (HIV-1). The assay is described as follows: cell-based or functional assay.
On to B1, for which the “% neutralization, single point, Env-pseudotyped virus on TZM-bl” value (“% neutralization, single point” for short) is 99%.

Consider B2, for which the “% neutralization, single point” value came to 41%.

On to B3, for which the “% neutralization, single point” value was 67%.

Consider B4, for which the “% neutralization, single point” value was determined as 23%.

B5: the “% neutralization, single point” value came to 98%.

As to B6, the “% neutralization, single point” value turned out to be 100%.

As to B7, the “% neutralization, single point” value is 100%.

With B8, the “% neutralization, single point” value is 77%.

With B9, the “% neutralization, single point” value is 98%.

Consider B10, for which the “% neutralization, single point” value amounted to 20%.

In the case of B11, the “% neutralization, single point” value came to 100%.

The next assay concerns the target HIV-1 Env of strain WITO.33 (Env-pseudotyped virus) (HIV-1). Description: cell-based or functional assay.
Regarding B1, the “% neutralization, single point” value worked out at 0%.

In the case of B2, the “% neutralization, single point” value was found to be 38%.

For the molecule B3, the “% neutralization, single point” value amounted to 0%.

For the molecule B4, the “% neutralization, single point” value worked out at 10%.

As to B5, the “% neutralization, single point” value is 0%.

Regarding B6, the “% neutralization, single point” value amounted to 18%.

As to B7, the “% neutralization, single point” value stood at 0%.

Consider B8, for which the “% neutralization, single point” value is 0%.

For B9, the “% neutralization, single point” value was 0%.

On to B10, for which the “% neutralization, single point” value came out at 3%.

As to B11, the “% neutralization, single point” value came to 0%.

The record behind these values is patent US20250197482A1 (UNITED STATES OF AMERICA AS REPRESENTED BY THE SECRETARY …, published 2025).
